In patent US9012420B2, “Aptamer for chymase, and use thereof” (Ribomic Inc., priority 2009, dated 2015):
Oligonucleotides are written 5' to 3', each unit as a sugar letter and its base; * is a phosphorothioate linkage, no mark a phosphodiester; rarer units and linkages stand in square brackets, end groups in braces. Plain capitals give the bases only. r = 2'-OH (RNA); f = 2'-fluoro

T1: chymase (recombinant) (UniProt P23946 P23946:22-247)
T1 sequence: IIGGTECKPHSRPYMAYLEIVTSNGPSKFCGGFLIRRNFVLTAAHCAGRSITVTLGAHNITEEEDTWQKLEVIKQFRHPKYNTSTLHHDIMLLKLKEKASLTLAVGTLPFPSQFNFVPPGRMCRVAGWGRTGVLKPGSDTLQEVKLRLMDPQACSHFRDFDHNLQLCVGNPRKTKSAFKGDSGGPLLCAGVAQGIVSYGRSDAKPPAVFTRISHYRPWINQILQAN

T2: chymase (Homo sapiens, UniProt P23946)
T2 sequence (P23946 22-247): T1 sequence

T3: chymase (recombinant, manufactured by SIGMA) (Homo sapiens, UniProt P23946)
T3 construct: purchased SIGMA; host or cells: yeast
T3 sequence (P23946 22-247): T1 sequence

B1: 56(31) (ssRNA)
RNA: GGGUUAGAUAGAGUUAAAAACCC
modifications: idT-G(M)G(M)G(M)U(F)U(F)AG(M)AU(F)A(M)GAG(M)U(F)U(F)A(M)A(M)A(M)A(M)A(M)C(F)C(F)C(F)-idT (M=2'-OMe, F=2'-F)
B2: 72(1) (mixed)
mixed: GGGTTAGAUAGAGTUAAAAACCC
modifications: idT-G(M)G(M)G(M)ttAG(M)aU(F)A(M)GAG(M)tU(F)A(M)A(M)A(M)A(M)A(M)ccc-idT (lower case DNA)
B3: 56(32) (ssRNA)
RNA: GGGUUAGAUAGAGUUAAAAACCC
modifications: idT-G(M)G(M)G(M)U(F)U(F)AGAU(F)A(M)GAG(M)U(F)U(F)A(M)A(M)A(M)A(M)A(M)C(F)C(F)C(F)-idT (M=2'-OMe, F=2'-F)
B4: 56(38) (ssRNA)
RNA: GGGUUAGAUAGAGUUAAAAACCC
modifications: idT-G(M)G(M)G(M)U(F)U(F)sAsGAU(F)A(M)GAG(M)U(F)U(F)A(M)A(M)A(M)A(M)A(M)C(F)C(F)C(F)-idT (M=2'-OMe, F=2'-F, s=PS)
B5: 61(1) (ssRNA)
RNA: GGGUUAGAUAGAUUUAAAAACCC
modifications: G(M)G(M)G(M)U(F)U(F)AG(M)A(M)U(F)A(M)GAU(F)U(F)U(F)A(M)A(M)A(M)A(M)A(M)C(F)C(F)C(F) (M=2'-OMe, F=2'-F)
B6: SEQ 71 (mixed)
mixed: GGGUUAGAUAGAGTUAAAAACCC
modifications: idT-G(M)G(M)G(M)U(F)U(F)AG(M)A(M)U(F)A(M)GAG(M)tU(F)A(M)A(M)A(M)A(M)A(M)C(F)C(F)C(F)-idT (lower case DNA)
B7: SEQ 70 (mixed)
mixed: GGGTTAGAUAGAGUUAAAAACCC
modifications: idT-G(M)G(M)G(M)ttAG(M)A(M)U(F)A(M)GAG(M)U(F)U(F)A(M)A(M)A(M)A(M)A(M)C(F)C(F)C(F)-idT (lower case DNA)
B8: SEQ 72 (mixed)
mixed: GGGTTAGAUAGAGTUAAAAACCC
modifications: idT-G(M)G(M)G(M)ttAG(M)A(M)U(F)A(M)GAG(M)tU(F)A(M)A(M)A(M)A(M)A(M)ccc-idT (lower case DNA)
B9: 41 (nucleic acid)
chain: GGGAGCAGGAGAGAGGUCAGAUGGUGAGAUAGAGUUAAACACCACAAUAGUAGCCUAUGCGUGCUAGUGUGA
modifications: aptamer; 2'-fluoro at CU, RNA at AG, backbone not given here
B10: SEQ 38 (ssRNA)
RNA: GGGAGCAGGAGAGAGGUCAGAUGGAUAGAGUUAAGAUCUGGCUGGCGCAUUAGCCUAUGCGUGCUAGUGUGA
modifications: 2'-F pyrimidines
B11: SEQ 44 (ssRNA)
RNA: GGGAGCAGGAGAGAGGUCAGAUGUUAGACCAAAGCAUAGGAGAUAGAGUUAAACCUAUGCGUGCUAGUGUGA
modifications: 2'-F pyrimidines
B12: SEQ 40 (ssRNA)
RNA: GGGAGCAGGAGAGAGGUCAGAUGAACGGAUAGAGCUAAGAGUUCGUCAGAGGGGCCUAUGCGUGCUAGUGUGA
modifications: 2'-F pyrimidines
B13: SEQ 42 (ssRNA)
RNA: GGGAGCAGGAGAGAGGUCAGAUGCGUGAUCGUGCAAGGCGGAUAGAGUUAAGGCCUAUGCGUGCUAGUGUGA
modifications: 2'-F pyrimidines
B14: SEQ 47 (ssRNA)
RNA: GGGAGCAGGAGAGAGGUCAGAUGGUGAUAGAUAGAGUUAAAAUCGCUGAAUGGCCUAUGCGUGCUAGUGUGA
modifications: 2'-F pyrimidines
B15: SEQ 43 (ssRNA)
RNA: GGGAGCAGGAGAGAGGUCAGAUGAUGCCAAGAUAGAUUUAAAUGGCGUUUGGGCCUAUGCGUGCUAGUGUGA
modifications: 2'-F pyrimidines
B16: SEQ 46 (ssRNA)
RNA: GGGAGCAGGAGAGAGGUCAGAUGGGACAGAUAGAGUUAAAGUCCGUUACGUGGCCUAUGCGUGCUAGUGUGA
modifications: 2'-F pyrimidines
B17: SEQ 45 (ssRNA)
RNA: GGGAGCAGGAGAGAGGUCAGAUGGACCACCGAUGGGCAAGAUAGAGUUAAAUGCCUAUGCGUGCUAGUGUGA
modifications: 2'-F pyrimidines
B18: SEQ 48 (ssRNA)
RNA: GGGAGCAGGAGAGAGGUCAGAUGUGAAGAUAGAGAUAAAUCACAUACAGUCGGCCUAUGCGUGCUAGUGUGA
modifications: 2'-F pyrimidines
B19: SEQ 41 (ssRNA)
RNA: B9 chain
modifications: 2'-F pyrimidines
B20: GGGACGGUAGGAAUUCGUCGAUUCUACAGAUAGAGAUAAAGUAGAAUUUAACAAAACAUAGAAGAGCGGCCGC (nucleic acid)
chain: rGrGrGrAfCrGrGfUrArGrGrArAfUfUfCrGfUfCrGrAfUfUfCfUrAfCrArGrAfUrArGrArGrAfUrArArArGfUrArGrArAfUfUfUrArAfCrArArArAfCrAfUrArGrArArGrArGfCrGrGfCfCrGfC
modifications: aptamer
B21: GGGACGGUAGGAAUUCGUCCUCAUGUCUAUUUUGCAGAUAGACUUAAAGCAAACAUAGAAGAGCGGCCGC (nucleic acid)
chain: rGrGrGrAfCrGrGfUrArGrGrArAfUfUfCrGfUfCfCfUfCrAfUrGfUfCfUrAfUfUfUfUrGfCrArGrAfUrArGrAfCfUfUrArArArGfCrArArAfCrAfUrArGrArArGrArGfCrGrGfCfCrGfC
B22: GGGACGGUAGGAAUUCAGCUGACUCCAAUGCACACGUAGAUAGAGUUAAAACGUUGCAUAGAAGAGCGGCCGC (nucleic acid)
chain: rGrGrGrAfCrGrGfUrArGrGrArAfUfUfCrArGfCfUrGrAfCfUfCfCrArAfUrGfCrAfCrAfCrGfUrArGrAfUrArGrArGfUfUrArArArAfCrGfUfUrGfCrAfUrArGrArArGrArGfCrGrGfCfCrGfC
modifications: aptamer
B23: GGGACGGUAGGAAUUCGUCCAUUCUACAGAUAGAGAUAAAGUAGAAUUUAACAAAACAUAGAAGAGCGGCCGC (nucleic acid)
chain: rGrGrGrAfCrGrGfUrArGrGrArAfUfUfCrGfUfCfCrAfUfUfCfUrAfCrArGrAfUrArGrArGrAfUrArArArGfUrArGrArAfUfUfUrArAfCrArArArAfCrAfUrArGrArArGrArGfCrGrGfCfCrGfC
B24: GGGACGGUAGGAAUUCGUCCCUCUUGUCUAUUUUGCAGAUAGACUUAAAGCAAACAUAGAAGAGCGGCCGC (nucleic acid)
chain: rGrGrGrAfCrGrGfUrArGrGrArAfUfUfCrGfUfCfCfCfUfCfUfUrGfUfCfUrAfUfUfUfUrGfCrArGrAfUrArGrAfCfUfUrArArArGfCrArArAfCrAfUrArGrArArGrArGfCrGrGfCfCrGfC
B25: GGGACGGUAGGAAUUCGUCCCUCAUGUCUAUUUUGCAGAUAGACUUAAAGCAAACAUAGAAGAGCGGCCGC (nucleic acid)
chain: rGrGrGrAfCrGrGfUrArGrGrArAfUfUfCrGfUfCfCfCfUfCrAfUrGfUfCfUrAfUfUfUfUrGfCrArGrAfUrArGrAfCfUfUrArArArGfCrArArAfCrAfUrArGrArArGrArGfCrGrGfCfCrGfC
B26: GGGACGGUAGGAAUUCUCGUUCCUGACAGCAUUUGAGAUAGAUUUAAACAAACGCACAUAGAAGAGCGGCCGC (nucleic acid)
chain: GGGACGGUAGGAAUUCUCGUUCCUGACAGCAUUUGAGAUAGAUUUAAACAAACGCACAUAGAAGAGCGGCCGC
modifications: chemistry not given here
B27: GGGACGGUAGGAAUUCCGCAACCAUCCCGUAACUAUGGUUAGAUAGAGUUAAAAACCAUAGAAGAGCGGCCGC (nucleic acid)
chain: GGGACGGUAGGAAUUCCGCAACCAUCCCGUAACUAUGGUUAGAUAGAGUUAAAAACCAUAGAAGAGCGGCCGC
modifications: chemistry not given here

target: T1, chymase (recombinant); test: inhibition; SPR ++; details: tags: SIGMA, expressed in yeast
Procedure: (§1) Here, Suc is a protecting succinyl group, and MCA is a 4-methylcoumaryl-7-amide group; upon cleavage of the C-terminal side of phenylalanine, AMC (7-amino-4-methyl-coumarine) is released. By detecting the fluorescence of this AMC, the enzyme activity of chymase can be determined. The assay was performed using a 96-well plate (F16 Black Maxisorp Fluoronunc, manufactured by Nunc), with a reaction mixture volume of 100 μL, in solution C as a buffer solution. First, each nucleic acid was serially diluted to 0.0027-2 μM concentrations in solution C to obtain 50 μL solutions. After 10 μL of the 1 mM substrate prepared in solution C was added thereto, the plate was set to the microplate reader SpectraMax190 (manufactured by Molecular Devices Corporation), and incubated at 37° C. for 5 minutes. Separately, 0.05 μg (or 0.005 μg) of chymase (recombinant, manufactured by SIGMA) was diluted in solution C to obtain a 40 μL chymase solution, and incubated at 37° C. for 5 minutes. The chymase solution was added to the mixture of the nucleic acid and substrate to initiate an enzyme reaction. The final chymase concentration in the reaction mixture was 16.7 nM (or 1.67 nM), the final substrate concentration being 100 μM. The plate containing the reaction mixture was set to the microplate reader SpectraMax190 (manufactured by Molecular Devices Corporation), and examined for time-dependent changes in the fluorescence intensity at 37° C. for 5 minutes (or 30 minutes) (excitation wavelength 380 nm, detection wavelength 460 nm). A linear approximation of the increase in the fluorescence of the AMC released from the substrate by chymase activity was generated, and its slope was taken as the initial velocity […]. For control, samples were treated and analyzed in the same manner in two cases: use of a 30N or 40N (a nucleotide of 30 or 40 consecutive bases represented by N; N is A, G, C or T) nucleic acid pool (negative control), and use of chymostatin, a known chymotrypsin-like serine protease inhibitor (positive control). Taking the initial reaction velocity without the nucleic acid and inhibitor (V_0) as a 100% enzyme activity, the inhibitory rate of each test substance was calculated using the following equation: […]
The chymase inhibitory activity was measured in the same manner as in Example 3.

Molecule	IC50 [nM]
B1	23
B2	13
B3	17
B4	19
B5	78
B6	28
B7	27
B8	20

target: T2, chymase; test: Surface plasmon resonance (Biacore T100), aptamer immobilized on SA chip, chymase injected as analyte; type: binding; parameters: key: ++: a sequence that binds to chymase significantly more strongly than the negative control 30N; details: Table 2; same manner as Example 1, running buffer solution C; compared with 30N
Procedure: (§2) Binding strength is measured using Biacore T100 (manufactured by GE Healthcare). In a method of measurement, the aptamer is first immobilized onto a sensor chip, the amount immobilized being about 1000 RU. 20 μL of a chymase solution for analyte, prepared at 0.2 μM, is injected, and the binding of chymase to the aptamer is detected. An RNA comprising a random nucleotide sequence of 30 or 40 nucleotides is used as a negative control.
(§3) The binding activities against chymase of the nucleic acids shown by SEQ ID NO: 4-20 and 22-34 were determined by the surface plasmon resonance method using Biacore T100 (manufactured by GE Healthcare). The sensor chip used was the SA chip, which had streptavidin immobilized thereon. Bound thereto was about 1500 RU of a 16-nucleotide Poly dT with biotin bound to the 5′ end thereof. […] 20 μL of chymase for analyte, prepared at 0.2 μM, was injected. Solution A was used as a running buffer.
(§4) The binding activities against chymase of the nucleic acids shown by SEQ ID NO: 38-48 were evaluated by the surface plasmon resonance method. In the evaluations for SEQ ID NO: 38-48, measurements were taken in the same manner as Example 1. Solution C was used as a running buffer.

Molecule	Binding activity as determined using Biacore
B9	++

target: T3, chymase (recombinant, manufactured by SIGMA); test: Chymase inhibitory activity using synthetic substrate Suc-Ala-Ala-Pro-Phe-MCA; type: biochemical; details: Table 3; substrate 100 μM, solution C, 37° C.; mean value for 2 to 3 measurements
Method in brief: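 Human recombinant chymase (16.7 nM or 1.67 nM final) preincubated 5 min at 37° C., then added to nucleic acid (0.0027–2 μM serial dilutions) and 100 μM substrate in solution C. AMC fluorescence (ex 380/em 460 nm) followed 5 or 30 min at 37° C.; slope gives initial velocity, inhibition versus no-inhibitor control yields IC50.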

Molecule	IC50 [nM]
B9	60 ± 17

target: T1, chymase (recombinant); test: inhibition; SPR ++ (Table 2); details: tags: SIGMA, expressed in yeast
Procedure: as §1

Molecule	IC50 [nM]
B10	50
B11	49
B12	140
B13	124
B14	58
B15	81
B16	38
B17	74
B18	95
B19	60

target: T2, chymase; test: Surface plasmon resonance (Biacore T100), aptamer immobilized on SA chip, chymase injected as analyte; type: binding; details: Table 1; about 1000 RU nucleic acid immobilized, chymase 0.2 μM analyte, running buffer solution A; compared with 40N
Procedure: as §2, §3, §4

Molecule	Binding activity as determined using Biacore
B20	higher binding activity than 40N
B21	equivalent binding activity compared with 40N
B22	higher binding activity than 40N
B23	higher binding activity than 40N
B24	higher binding activity than 40N
B25	equivalent binding activity compared with 40N
B26	higher binding activity than 40N
B27	higher binding activity than 40N
